Values joined by “and” are separate entries in the source; they are usually repeats but may differ in a detail not shown here. Identical values can stand only once. Blank lines part the entries; values can stand above or below the binder they belong to.
Assays:
[1] = target: T1, mouse transferrin receptor (mouse, UniProt Q62351 1-763); assay: radio-receptor assay on mouse fibroblasts, displacement of [125I]-8D3 by unlabeled cTfRMAb-GDNF, non-linear regression
T1 construct: whole, on cells; Mouse fibroblasts were the source of the mouse TfR in the radio-receptor assay; also called mouse TfR; TfR
Experimental: (§1) Mouse TfR radio-receptor assay. Mouse fibroblasts were plated in 24-well cluster dishes (100,000 cells/well) 24 hours before the radio-receptor assay (RRA) of TfRMAb binding to the mouse TfR. The medium was aspirated, the cells washed with phosphate buffered saline (PBS), and 500 μL was added to each well containing 0.15 μCi/mL of [¹²⁵I]-labeled rat 8D3 MAb, and 0.3 to 100 nM concentrations of either unlabeled rat 8D3 MAb or unlabeled cTfRMAb. Following incubation at 4 C for 120 min, the medium was aspirated, the plates washed with cold PBS containing 1% bovine serum albumin (BSA), and the monolayer was lysed with 0.2 mL/well of 1 N NaOH. An aliquot was removed for protein measurement using the bicinchoninic acid (BCA) assay, and the radioactivity in the lysate was determined with a Beckmann gamma counter. The % bound/mg protein was computed from the radioactivity in the cell lysate and the total radioactivity in the medium. The 8D3 self-inhibition binding data were fit by non-linear regression analysis yield either the KD of 8D3 self-inhibition in the binding assay, or the KI of cross-inhibition by the chimeric TfRMAb or the cTfRMAb fusion protein.
(§2) Mouse fibroblasts were used as the source of the mouse TfR, and the ¹²⁵I-labeled rat 8D3 TfRMAb was used as the binding ligand. […]

[2] = target: T2, fusion protein of human Fc and the human GFRalpha1 extracellular domain (human, UniProt P56159 25-429, limits assumed); assay: ELISA: GFRα1:Fc captured by mouse anti-human Fc, detection with goat anti-GDNF and rabbit anti-goat-AP; given as ED50
T2 construct: extracellular domain; Captured on ELISA wells by a mouse anti-human Fc antibody; The order of the parts follows the printed name GFRα1:Fc; also called GFRα1:Fc fusion protein; GFRα1 ECD; not shown: human Fc
T2 sequence (looked up): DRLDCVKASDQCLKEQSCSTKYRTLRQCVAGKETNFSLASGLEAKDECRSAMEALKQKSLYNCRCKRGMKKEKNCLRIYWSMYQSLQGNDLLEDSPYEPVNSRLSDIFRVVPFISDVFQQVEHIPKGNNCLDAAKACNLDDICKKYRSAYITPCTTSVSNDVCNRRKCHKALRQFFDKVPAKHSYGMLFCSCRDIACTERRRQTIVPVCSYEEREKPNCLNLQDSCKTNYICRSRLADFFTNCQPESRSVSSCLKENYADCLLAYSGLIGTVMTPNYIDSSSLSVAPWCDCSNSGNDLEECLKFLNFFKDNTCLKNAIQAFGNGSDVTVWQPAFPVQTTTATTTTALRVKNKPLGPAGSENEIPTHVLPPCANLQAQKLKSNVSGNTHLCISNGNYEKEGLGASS
Source text: FIG. 10. (A) Outline of GFRα1 receptor binding assay. The GFRα1:Fc fusion protein is captured by a mouse anti-human (MAH) Fc antibody. The GDNF, or cTfRMAb-GDNF fusion protein, binds to the GFRα1, and this binding is detected with a goat anti-GDNF antibody and a rabbit anti-goat (RAG) antibody conjugated to alkaline phosphatase (AP). (B) Binding of either GDNF (top panel) or the cTfRMAb-GDNF fusion protein (bottom panel) to the GFRα1 extracellular domain (ECD) is saturable.
The cTfRMAb-GDNF fusion protein is a bi-functional molecule that binds 2 receptors (FIG. 8): (i) the brain capillary endothelial mouse TfR to cause RMT across the mouse BBB in vivo, and (ii) the GFRα1 on neurons, to cause therapeutic actions in brain behind the BBB. The bi-functionality of the cTfRMAb-GDNF fusion protein was tested with binding assays for both the human GFRα1 and the mouse TfR. A mouse anti-human Fc (MAH-Fc) is plated in ELISA wells and captures a fusion protein of human Fc and the human GFRα1 extracellular domain (ECD). The cTfRMAb-GDNF fusion protein, or mature human GDNF, is then added, and these molecules bind to the GFRα1 ECD in proportion to the affinity for this receptor. The binding of the GDNF or the cTfRMAb-GDNF fusion protein is then detected with a goat anti-GDNF antibody, and a rabbit anti-goat (RAG) IgG-alkaline phosphatase (AP) conjugate (FIG. 10A).

[3] = target: T1, mouse transferrin receptor; assay: radio-receptor assay on mouse fibroblasts, 4 C, displacement of [125I]-8D3 by unlabeled cTfRMAb, non-linear regression
Experimental: as §1

[4] = target: T1, mouse transferrin receptor; assay: radio-receptor assay on mouse fibroblasts, self-inhibition of [125I]-8D3, non-linear regression
Experimental: as §1, §2

[5] = target: T1, mouse transferrin receptor; assay: radio-receptor assay on mouse fibroblasts, 4 C, self-inhibition of [125I]-8D3 by unlabeled 8D3, non-linear regression
Experimental: as §1

T1 sequence (Q62351 whole entry): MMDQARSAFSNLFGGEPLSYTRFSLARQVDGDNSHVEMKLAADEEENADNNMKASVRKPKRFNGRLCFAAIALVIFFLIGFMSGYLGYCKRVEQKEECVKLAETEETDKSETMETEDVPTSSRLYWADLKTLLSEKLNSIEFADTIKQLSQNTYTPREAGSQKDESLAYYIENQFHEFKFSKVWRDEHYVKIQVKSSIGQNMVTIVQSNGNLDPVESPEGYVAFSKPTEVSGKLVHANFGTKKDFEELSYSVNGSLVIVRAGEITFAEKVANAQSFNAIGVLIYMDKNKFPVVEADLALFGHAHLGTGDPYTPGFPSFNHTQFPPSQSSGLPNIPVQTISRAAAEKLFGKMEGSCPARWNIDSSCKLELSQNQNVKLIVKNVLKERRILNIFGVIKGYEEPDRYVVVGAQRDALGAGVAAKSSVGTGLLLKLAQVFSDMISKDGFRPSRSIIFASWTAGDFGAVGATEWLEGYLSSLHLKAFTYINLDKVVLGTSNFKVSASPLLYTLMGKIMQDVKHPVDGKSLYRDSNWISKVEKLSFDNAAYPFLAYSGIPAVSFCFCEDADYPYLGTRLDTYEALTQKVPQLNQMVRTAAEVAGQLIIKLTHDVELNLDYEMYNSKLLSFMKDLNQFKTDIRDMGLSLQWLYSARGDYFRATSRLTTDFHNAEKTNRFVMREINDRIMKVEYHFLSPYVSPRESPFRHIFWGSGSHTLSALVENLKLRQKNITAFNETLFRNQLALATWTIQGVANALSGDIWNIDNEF

B1: cTfRMAb-GDNF fusion protein (human mature GDNF fused to the carboxyl terminus of the heavy chain of the chimeric MAb against the mouse TfR) (other)
heavy: EVQLVESGGGLVQPGNSLTLSCVASGFTFSNYGMHWIRQAPKKGLEWIAMIYYDSSKMNYADTVKGRFTISRDNSKNTLYLEMNSLRSEDTAMYYCAVPTSHYVVDVWGQGVSVTVSSAKTTPPSVYPLAPGSAAQTNSMVTLGCLVKGYFPEPVTVTWNSGSLSSGVHTFPAVLQSDLYTLSSSVTVPSSTWPSETVTCNVAHPASSTKVDKKIVPRDCGCKPCICTVPEVSSVFIFPPKPKDVLTITLTPKVTCVVVDISKDDPEVQFSWFVDDVEVHTAQTQPREEQFNSTFRSVSELPIMHQDWLNGKEFKCRVNSAAFPAPIEKTISKTKGRPKAPQVYTIPPPKEQMAKDKVSLTCMITDFFPEDITVEWQWNGQPAENYKNTQPIMDTDGSYFVYSKLNVQKSNWEAGNTFTCSVLHEGLHNHHTEKSLSHSPGSSSSPDKQMAVLPRRERNRQAAAANPENSRGKGRRGQRGKNRGCVLTAIHLNVTDLGLGYETKEELIFRYCSGSCDAAETTYDKILKNLSRNRRLVSDKVGQACCRPIAFDDDLSFLDDNLVYHILRKHSAKRCGCI
light: DIQMTQSPASLSASLEEIVTITCQASQDIGNWLAWYQQKPGKSPQLLIYGATSLADGVPSRFSGSRSGTQFSLKISRVQVEDIGIYYCLQAYNTPWTFGGGTKLELKRADAAPTVSIFPPSSEQLTSGGASVVCFLNNFYPKDINVKWKIDGSERQNGVLNSWTDQDSKDSTYSMSSTLTLTKDEYERHNSYTCEATHKTSTSPIVKSFNRGEC
notes: Hetero-tetramer of 2 light chains and 2 fusion heavy chains; expressed in COS cells, purified on protein G; also called cTrFMAb-GDNF
- Ki [1]: 3 nM
- EC50 [2]: 2.55 nM

B3: chimeric monoclonal antibody against the mouse transferrin receptor (rat 8D3 variable regions, mouse IgG1/kappa constant regions) (antibody, V domains shown)
VH: EVQLVESGGGLVQPGNSLTLSCVASGFTFSNYGMHWIRQAPKKGLEWIAMIYYDSSKMNYADTVKGRFTISRDNSKNTLYLEMNSLRSEDTAMYYCAVPTSHYVVDVWGQGVSVTVSS
VL: DIQMTQSPASLSASLEEIVTITCQASQDIGNWLAWYQQKPGKSPQLLIYGATSLADGVPSRFSGSRSGTQFSLKISRVQVEDIGIYYCLQAYNTPWTFGGGTKLELKR
notes: also called chimeric TfRMAb; cTfRMAb
- Ki [3]: 2.6 nM

Results, then the binder that gave them:

- EC50 [2]: 1.03 nM
B2: human mature 134 amino acid glial derived neurotrophic factor (ligand, UniProt P39905 78-211, looked up)
chain: SPDKQMAVLPRRERNRQAAAANPENSRGKGRRGQRGKNRGCVLTAIHLNVTDLGLGYETKEELIFRYCSGSCDAAETTYDKILKNLSRNRRLVSDKVGQACCRPIAFDDDLSFLDDNLVYHILRKHSAKRCGCI
notes: mature; also called GDNF; mature human GDNF

- Kd [4]: 5 nM and 3.2 nM
- Kd [5]: 2.3 nM
B4: rat 8D3 monoclonal antibody against the mouse transferrin receptor, hybridoma generated (antibody, V domains shown)
VH: B3 VH
VL: DIQMTQSPASLSASLEEIVTITCQASQDIGNWLAWYQQKPGKSPQLLIYGATSLADGVPSRFSGSRSGTQFSLKISRVQVEDIGIYYCLQAYNTPWTFGGGTKLELK
modifications: In part of the assays the antibody carried 125I (radio-iodinated tyrosines); the letters do not show this.
notes: Rat hybridoma antibody purified on protein G; also called 8D3 MAb; 8D3 TfRMAb
